What was measured:
Assay in all cases: AUC; sedimentation velocity, 50,000 rpm, absorbance optics, c(s) analysis; physiological ionic strength, buffers with Ca2+ or EDTA; 0.8-2.2 uM for full-length MASPs; dimer to monomers
[1] = molecular target: activated full-length rat MASP-2 (rat)
[2] = molecular target: rat MASP-1 CUB1-EGF-CUB2 (MASP-1 3D) (rat) (UniProt Q8CHN8)
[3] = molecular target: full-length rat MASP-2 zymogen (rat) (UniProt Q9JJS8)
[4] = molecular target: full-length rat MASP-1 zymogen (rat) (UniProt Q8CHN8)
[5] = molecular target: activated full-length rat MASP-1 (rat)

Question: Which results are given for “activated full-length rat MASP-2 (enzyme)”?
Answer: Kd [1]: < 10 nM; stoichiometry N [1]: 2

Question: With “rat MASP-1 CUB1-EGF-CUB2 (MASP-1 3D) (from UniProt Q8CHN8 61-301) (domain or fragment)” as the substance, how does the stoichiometry N [2] read?
Answer: 2

Question: What does the source list for “full-length rat MASP-2 zymogen (from UniProt Q9JJS8 20-685) (enzyme)”?
Answer: Kd [3]: < 10 nM; stoichiometry N [3]: 2

Question: Which Kd [4] does the source give for “full-length rat MASP-1 zymogen (from UniProt Q8CHN8 25-704) (enzyme)” here?
Answer: < 10 nM

Question: And the stoichiometry N [4]?
Answer: 2

Question: Which results are given for “activated full-length rat MASP-1 (enzyme)”?
Answer: Kd [5]: < 10 nM; stoichiometry N [5]: 2
